The data set has as its target T1, IS608 TnpA transposase (Helicobacter pylori (IS608), UniProt Q933Z0 1-155).
T1 sequence: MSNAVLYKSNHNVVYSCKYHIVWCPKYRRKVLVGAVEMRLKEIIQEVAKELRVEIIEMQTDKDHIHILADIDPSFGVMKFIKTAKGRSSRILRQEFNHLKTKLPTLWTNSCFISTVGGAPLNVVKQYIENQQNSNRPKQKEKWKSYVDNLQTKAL
Nature of the data set: X-ray crystallography (2.6 A); Ca2+; 2 LE29 and 2 T6' per TnpA dimer; pre-cleavage target capture complex; Crystal complex: TnpA:LE29:T6' 1:1:1.3, 20 mM Tris-HCl pH 7.5, 0.2 M NaCl, 0.2 mM TCEP, 2 mM EDTA; crystallized with 14.6% PEG 3350, 0.19 M calcium acetate; cleavage and integration assays are activity read-outs and not listed. The note with it: protein: recombinant; chain copies: 2; LE29 imperfect hairpin; GL of LE29 pairs with TTAC of T6', A+42 and T+43 form base triplets; 2 copies of each strand per TnpA dimer.

B1: LE29 hairpin + T6' target oligo (structured_DNA)
DNA 1: AAAGCCCCTAGCTTTTAGCTATGGGGATA
DNA 2: ATTACC
Turning to B1, the binding result is recorded as “binds”.

The values are drawn from paper PMC5934647, “Targeting IS608 transposon integration to highly specific sequences by structure-based transposon engineering”.
